Changes are numbered by the printed parent chain.
Columns and labels:
[1] = target: recombinant human Siglec-10 protein (Siglec-10 antigen coated in ELISA) (Homo sapiens (Human)., UniProt Q96LC7)
[2] = target: Siglec-5 antigen (recombinant Siglec-5 protein coated in ELISA) (Homo sapiens (assumed), UniProt O15389); experiment: ELISA
Sequence of Siglec-5 antigen (recombinant Siglec-5 protein coated in ELISA) (O15389 17-551): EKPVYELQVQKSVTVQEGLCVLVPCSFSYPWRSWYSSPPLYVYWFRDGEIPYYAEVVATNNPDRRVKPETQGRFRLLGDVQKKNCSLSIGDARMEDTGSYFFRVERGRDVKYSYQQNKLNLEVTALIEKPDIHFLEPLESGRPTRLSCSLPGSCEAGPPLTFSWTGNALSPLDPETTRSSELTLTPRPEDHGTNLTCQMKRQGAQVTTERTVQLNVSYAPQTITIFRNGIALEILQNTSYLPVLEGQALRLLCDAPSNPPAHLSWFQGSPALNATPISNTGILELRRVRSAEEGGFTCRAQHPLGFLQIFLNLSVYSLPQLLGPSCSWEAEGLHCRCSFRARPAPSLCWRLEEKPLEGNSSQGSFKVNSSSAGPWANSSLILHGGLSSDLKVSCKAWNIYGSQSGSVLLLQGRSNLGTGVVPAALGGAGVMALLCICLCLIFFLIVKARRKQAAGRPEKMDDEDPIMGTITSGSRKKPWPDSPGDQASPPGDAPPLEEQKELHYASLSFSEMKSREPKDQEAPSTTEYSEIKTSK

Sequence of recombinant human Siglec-10 protein (Siglec-10 antigen coated in ELISA) (Q96LC7 17-550): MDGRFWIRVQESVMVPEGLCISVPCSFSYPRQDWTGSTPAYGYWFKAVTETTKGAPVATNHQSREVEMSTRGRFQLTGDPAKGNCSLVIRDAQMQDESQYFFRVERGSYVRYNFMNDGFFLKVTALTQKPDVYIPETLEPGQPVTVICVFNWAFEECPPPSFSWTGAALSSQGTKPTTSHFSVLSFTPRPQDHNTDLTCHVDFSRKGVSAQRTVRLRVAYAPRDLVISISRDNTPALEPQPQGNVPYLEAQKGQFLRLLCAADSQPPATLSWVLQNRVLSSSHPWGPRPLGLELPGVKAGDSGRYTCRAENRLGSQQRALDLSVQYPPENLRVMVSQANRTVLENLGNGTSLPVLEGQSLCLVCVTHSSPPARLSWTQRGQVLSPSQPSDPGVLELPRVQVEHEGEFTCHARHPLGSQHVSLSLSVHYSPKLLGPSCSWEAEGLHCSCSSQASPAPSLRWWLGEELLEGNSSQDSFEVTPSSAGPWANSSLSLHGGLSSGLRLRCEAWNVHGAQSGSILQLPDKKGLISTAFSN

B1: 31E6H8 (antibody, V domains shown)
VH: EVKLVESGGGLVQPGGSLSLSCAASGFTFTDYYMTWVRQPPGKALEWLGFIRNKANGYTTEYSASVKGRFTISRDNSQSILSLQMNALSAEDSATYYCASLVLRGFAYWGQGTLVTVSA
VL: not shown
binding result [1]: binds

B2: 56C3E6 (antibody, V domains shown)
VH: B1 VH with K3N, G16D, A24T, T35S, S82Y, S89R, A90P, L101P, Q111R
VL: DIQMTQSPASLSASVGETVTITCRASGNIHNYLAWYQQKQGKSPQLLVYNAKTLADGVPSRFSGSGSGTQYSLKINSLQPEDFGSYYCQHFWSTPFTFGSGTKLEIK
binding result [1]: binds

B3: 36F7B3 (antibody, V domains shown)
VH: B1 VH with G49C, S82Y, M85V, S89R, S100T, L101Y, F106L
VL: not shown
binding result [1]: binds

B4: 66E8F8 (antibody, V domains shown)
VH: B1 VH with T35S, G49C, S82Y, M85V, S89R, S100T, L101Y, F106L
VL: not shown
binding result [1]: binds

B5: 35G6G1 (antibody, V domains shown)
VH: B1 VH with T30A, Y58F, S82Y, S89R, S100R, L101Y, V102G
VL: DIVMTQSPSSLAMSVGQKVTLNCKSSQSLLNSSNQKNYLAWYQQKPGQSPKLLVYFASTRESGVPDRFIGSGSGTDFTLTISSVQAEDLADYFCHQHYSTPFTFGSGTKLEMK
binding result [1]: binds

B6: 38B2G5 (antibody, V domains shown)
VH: QVQLQQSGAEVAKPGASVKLSCKASGYTFTSYWMHWVKQRPGQGLEWIGYINPSNNYTKYNQKFNDKATLTADKSSSTAYMQLSSLTYEDSALYYCARVYYYGNSPAWFAYWGQGTLVTVSA
VL: QIVLSQSPAILSASPGEKVTMTCRASSSVSYMHWYQQKPGSSPKPWIYATSNLASGVPARFSGSGSGTSYSLTISRVEAEDAATYYCQQWTSNPPTFGGGTKLEIK
binding result [1]: binds

B7: 22F1A9 (antibody, V domains shown)
VH: EVQLVESGGGLVKPGGSLKLSCAASGFTFSSYAMSWVRQTPEKRLEWVATISDGGSYTYYPDNVKGRFTISRDNTKNNLYLQMSHLKSEDTAMFYCARDLSPLYYRGPMDYWGQGTSVTVSS
VL: DIQMTQSPASLSASLGERVSLTCRASQDIGSSLNWLQQEPDGTIKRLIYATSSLDSGVPKRFSGSRSGSDYSLTISSLESEDFVDYYCLQYASSPFTFGSGTKLEIK
binding result [1]: binds

B8: 35B3F9 (antibody, V domains shown)
VH: EVKLVESGGGLVQPGGSLRLSCAASGFTFTDYYMSWVRQPPGKALEWLGFIRNKVSGYTTDNSASVKGRFTISRDDSQSIVYLQMNDLRAEDSATYYCARYVSLWLLGYFDVWGTGTTVTVSS
VL: DVQITQSPSYLAASPGETITINCRASKSISKYLAWYQEKPGKTNKLLIYSGSTLQSGIPSRFSGSGSGTDFTLTISSLEPEDFAMYYCQQHNEYPLTFGTGTKLELK
binding result [1]: binds

B9: 48D6F4 (antibody, V domains shown)
VH: B8 VH with K3R, V55P, D61E, N62Y, I72F, D76N, V81L, D87A, V102I, F110L
VL: B8 VL with T20I, A25T, K45N, T72S, M85I, T100A, K107N
binding result [1]: binds

B10: 38D6A8 (antibody, V domains shown)
VH: EVKLVESGGGLVQPGGSLSLSCAASGFTFTDYYMSWVRQPPGKALEWLGFIRNKASGYTTEYSASVKGRFTISRDNSQNILYLQMNALRAEDGATYYCVRYISLWLLGYFDVWGTGTTVTVSS
VL: B8 VL with E93D, T100A
binding result [1]: binds

B11: recombinant 68A11A1 antibody (IgG1 isotype), anti-Siglec-10 monoclonal antibody (antibody, V domains shown)
VH: B8 VH with R19S, N62Y, A64S, I72F, D76N, Q84H, D87A, A99T
VL: B8 VL with I4L, A25T, T100A
binding result [2]: no binding

B12: 73D4G2 (antibody, V domains shown)
VH: B10 VH with K3R, S19R, A55P, N79S, G93S, V99A, F110L
VL: B8 VL with T20I, A25T, T100A
binding result [1]: binds

B13: 54C2F11 (antibody, V domains shown)
VH: B10 VH with K3R, S19R, A55P, N79S, G93S, V99A, F110L
VL: B8 VL with T20I, A25T, T100A, K107N
binding result [1]: binds

B14: 68B1E2 (antibody, V domains shown)
VH: B10 VH with S63N
VL: B8 VL with E93D, T100A
binding result [1]: binds
